{"source": "patent US20180031580A1", "about": "“USE OF IGF-1 AS PROGNOSTIC FACTOR IN CALCIFICATION OF AORTIC VALVES” (THE ASAN FOUNDATION, priority 2015, published 2018)", "key": {"[1]": {"system": "aortic valve vascular smooth muscle tissue", "assay": "ALP staining of aortic valve vascular smooth muscle tissue, osteocytogenesis level", "assay_type": "in vivo, mice", "conditions": "wild-type or eNOS-deficient mice treated with DPP-4 and IGF-1 at the same time; FIG. 2a", "procedure": "Wild-type mice or eNOS-deficient mice which are animal models with the aortic valve calcification were treated with insulin-like growth factor type 1 (IGF-1) alone or treated with dipeptidyl-peptidase 4 (DPP-4) and IGF-1 at the same time. Then, ALP staining was performed on the aortic valve vascular smooth muscle tissue, thereby comparing the […] level of tissue (FIG. 2a). Here, the aortic valve vascular smooth muscle tissue of the wild-type mice treated with nothing or the eNOS-deficient mice was used as a control group.\nFIG. 2a are an image and a graph showing verification of the effect of DPP-4 on an action of IGF-1 inhibiting osteocytogenesis in the aortic valve vascular smooth muscle tissue of the wild-type mice or the eNOS-deficient mice."}, "[2]": {"system": "ERK or Akt", "assay": "Western blot of phosphorylation of intracellular signaling proteins ERK or Akt in aortic valve vascular smooth muscle tissue", "assay_type": "in vivo", "conditions": "eNOS-deficient mice treated with IGF-1 and DPP-4, 0, 5, 15 or 30 minutes; FIG. 2b", "procedure": "Further, in order to confirm whether the activation level of the protein involved in intracellular signaling was changed by osteocytogenesis according to DPP-4, the eNOS-deficient mice were treated with IGF-1 alone for 0, 5, 15 or 30 minutes, or treated with DPP-4 and IGF-1 at the same time, and then, the aortic valve vascular smooth muscle tissue was extracted from these mice. Then, a phosphorylation level of ERK or Akt which is a protein involved in intracellular signaling expressed in the extracted tissues was compared by western blot analysis (FIG. 2b). Here, β-actin was used as an internal control group.\nFIG. 2b is a Western blot analysis image showing a change in the phosphorylation level of ERK or Akt which is the protein involved in intracellular signaling according to whether the DPP-4 is treated in the eNOS-deficient mice treated with IGF-1."}}}
{"molecule": "DPP-4: antigenic enzyme, membrane-bound glycoprotein, also referred to as CD26; cleaves two N-terminal peptides including proline (protein) NKGTDDATADSRKTYTLTDYLKNTYRLKLYSLRWISDHEYLYKQENNILVFNAEYGNSSVFLENSTFDEFGHSINDYSISPDGQFILLEYNYVKQWRHSYTASYDIYDLNKRQLITEERIPNNTQWVTWSPVGHKLAYVWNNDIYVKIEPNLPSYRITWTGKEDIIYNGITDWVYEEEVFSAYSALWWSPNGTFLAYAQFNDTEVPLIEYSFYSDESLQYPKTVRVPYPKAGAVNPTVKFFVVNTDSLSSVTNATSIQITAPASMLIGDHYLCDVTWATQERISLQWLRRIQNYSVMDICDYDESSGRWNCLVARQHIEMSTTGWVGRFRPSEPHFTLDGNSFYKIISNEEGYRHICYFQIDKKDCTFITKGTWEVIGIEALTSDYLYYISNEYKGMPGGRNLYKIQLSDYTKVTCLSCELNPERCQYYSVSFSKEAKYYQLRCSGPGLPLYTLHSSVNDKGLRVLEDNSALDKMLQNVQMPSKKLDFIILNETKFWYQMILPPHFDKSKKYPLLLDVYAGPCSQKADTVFRLNWATYLASTENIIVASFDGRGSGYQGDKIMHAINRRLGTFEVEDQIEAARQFSKMGFVDNKRIAIWGWSYGGYVTSMVLGSGSGVFKCGIAVAPVSRWEYYDSVYTERYMGLPTPEDNLDHYRNSTVMSRAENFKQVEYLLIHGTADDNVHFQQSAQISKALVDVGVDFQAMWYTDEDHGIASSTAHQHIYTHMSHFIKQCFSLP", "values": [{"measurement": "osteocytogenesis of aortic valve vascular smooth muscle tissue (ALP staining)", "setting": "[1]", "result": "intensified"}, {"measurement": "phosphorylation level of ERK or Akt", "setting": "[2]", "result": "reduced"}]}
